Reference: patent US20250136711A1 (SHANGHAI BIOTROY BIOTECHNIQUE, published 2025)

T1: SEMG1 recombinant protein (semenogelin-1) (human, UniProt P04279 24-462, limits assumed)
T1 construct: also called full-length SEMG1
T1 sequence (looked up): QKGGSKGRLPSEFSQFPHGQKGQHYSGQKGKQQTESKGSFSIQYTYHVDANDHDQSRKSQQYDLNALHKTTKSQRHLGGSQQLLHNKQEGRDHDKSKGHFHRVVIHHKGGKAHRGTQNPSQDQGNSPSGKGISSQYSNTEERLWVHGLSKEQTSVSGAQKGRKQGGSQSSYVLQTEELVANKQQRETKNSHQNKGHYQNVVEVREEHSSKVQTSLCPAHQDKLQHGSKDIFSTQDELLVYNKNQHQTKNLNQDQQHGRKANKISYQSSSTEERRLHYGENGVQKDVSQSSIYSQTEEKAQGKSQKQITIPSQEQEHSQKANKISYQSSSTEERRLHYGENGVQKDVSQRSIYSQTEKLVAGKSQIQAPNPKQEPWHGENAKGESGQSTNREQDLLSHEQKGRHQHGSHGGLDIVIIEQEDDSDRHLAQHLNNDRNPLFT

T2: SEMG2 recombinant protein (semenogelin-2) (human, UniProt Q02383 24-582, limits assumed)
T2 construct: also called SMEG2
T2 sequence (looked up): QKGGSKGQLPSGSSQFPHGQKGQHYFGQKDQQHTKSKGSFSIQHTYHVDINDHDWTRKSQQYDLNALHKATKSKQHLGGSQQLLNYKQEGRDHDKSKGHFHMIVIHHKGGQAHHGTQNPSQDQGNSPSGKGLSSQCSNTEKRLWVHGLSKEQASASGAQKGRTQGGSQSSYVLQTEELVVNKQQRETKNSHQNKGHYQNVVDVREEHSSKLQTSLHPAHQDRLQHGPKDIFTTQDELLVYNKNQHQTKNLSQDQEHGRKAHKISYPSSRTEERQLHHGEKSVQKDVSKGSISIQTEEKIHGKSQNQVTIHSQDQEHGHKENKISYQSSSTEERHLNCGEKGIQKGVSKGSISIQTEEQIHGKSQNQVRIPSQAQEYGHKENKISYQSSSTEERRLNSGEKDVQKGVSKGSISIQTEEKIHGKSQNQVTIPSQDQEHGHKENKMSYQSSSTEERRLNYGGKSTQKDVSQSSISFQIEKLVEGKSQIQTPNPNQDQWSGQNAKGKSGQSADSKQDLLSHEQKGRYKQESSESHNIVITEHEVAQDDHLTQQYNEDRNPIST

T3: S1-26 synthetic polypeptide of SEMG1 (human)
T3 construct: also called SEMG1-26
T3 peptide: KDIFSTQDELLVYNK


How the values were obtained:
SEMG2 (human) = SEMG2 (human) (UniProt Q02383); assay: ELISA; negative control
[1] = target: T1, SEMG1 recombinant protein …; assay: ELISA; SEMG1 coated, antibody in 3-fold dilution series, goat anti-mouse HRP
Protocol: (§1) In order to identify whether the screened monoclonal antibodies with neutralizing effect can bind to SEMG1 and SEMG2 proteins, we coated SEMG2 protein diluted in carbonate buffer (Solarbio, Beijing, China) to a final concentration of 1 μg/mL on a dedicated ELISA plate (costar, ME, USA), and the binding of 1 μg/mL mouse hybridoma antibody to SEMG2 was initially tested. According to the determination outcome, the binding and binding strength between SEMG1 or SEMG2 and the purified mouse monoclonal antibody were further analyzed by ELISA experiment, and an irrelevant mouse monoclonal antibody was taken as a negative control. Specifically, a special plate for ELISA (costar, ME, USA) was used. First, different concentrations of SEMG1 or SEMG2 recombinant proteins were dissolved in 100 μL of carbonate coating buffer (Solarbio, Beijing, China) to 2 μg/mL to coat the plate, and the negative control was coated with 100 μL of coating buffer without protein. The plates were coated overnight at 4° C. […] After washing with PBST, color developing solution (Sangon, Shanghai, China) was used for color development, 100 μL per well, the plate was placed in an incubator for 5-30 minutes, and adding 50 μL of stop solution (Sangon, Shanghai, China) to stop the reaction, and then the plate was placed in a microplate reader (Thermo Fisher, MA, USA) for chromogenic reading at 450 nm.

[2] = target: T2, SEMG2 recombinant protein …; assay: ELISA; SEMG2 coated, antibody in 3-fold dilution series, goat anti-mouse HRP
Protocol: as §1

[3] = target: T3, S1-26 synthetic polypeptide of SEMG1; assay: ELISA on coated peptide; antibody at 2.5 ug/mL; positive if OD ratio to blank >3
Protocol: ⅓ overlapping peptide sequences were designed, and a peptide library consisting of 45 peptides (GenScript, Nanjing) was synthesized. Peptide matrix was prepared by using a polypeptide-coated 96-well plate (Costar, Corning), and the selected monoclonal antibody was used as the primary antibody for ELISA binding test, and SEMG1 coating was set as a positive control, and BSA coating was set as a control. The ELISA procedure was performed routinely, as described in Example 2 above. For the coated polypeptide well with OD_{experimental group}/OD_{blank group}>3, it was determined as a positive reaction, which was the corresponding antibody-bound polypeptide sequence.

EC50 (SEMG2 (human)) [nM]	EC50 [1] [nM]	EC50 [2] [nM]	binding result [3]	Molecule
4.24				mIgG1
	1.26	1.69	binds	25-E10-F8-B5 (antibody, mouse IgG1, V domains shown, Mouse hybridoma monoclonal antibody; The V regions were re-cloned with murine IgG1 and murine kappa constant regions to verify activity) VH: QVQLQQPGAELVKPGASVKMSCKASGYTFTSYNMHWVKQTPGQGLEWIGAIYPGNGDTSYNQKFKGKATLTADKSSSTAYMQLSSLTSEDSAVYYCASAMDYWGQGTSVTVSS VL: SIVMTQTPLSLPVSLGDQASISCRSSQSLVHSNGNTYLQWYLQKPGQSPKLLIYKVSNRFSGVPDRFSGSGSGTDFTLKISRVEAEDLGVYFCSQSKHVPRTFGGGTKLEIK
	3.67	2.39	binds	33-B5-C1-F5 (antibody, mouse IgG1, V domains shown, Mouse hybridoma monoclonal antibody; The V regions were re-cloned with murine IgG1 and murine kappa constant regions to verify activity) VH: EVQLQESGAELVKPRASVKMSCKASGYTFSSYNMHWIRQTPEQGLEWIGAIYPGTGDTSYNQKFKGKATLTADKSSSTAYMQLSSLTSEDSAVYYCASAMDYWGQGTSVTVSS VL: DVVLTQTPLSLPVSLGDQASISCRSSQSLLHSNGNTYLQWFLQRSGQSPKLLIYKVSNRFYGVPDRFSGSGSGTDFTLKISRVEAEDLGVYFCSQSIDVPRTFGGGTKLEIK
